Data: patent publication US20110250165A1

Tests used:
[1] = target: CF2ThCXCR4 (human) (UniProt P61073); assay: FACS binding; CF2ThCXCR4 cells, MFI
[2] = target: CXCR4 (Jurkat) (human) (UniProt P61073); assay: FACS binding; Jurkat cells, % positive
[3] = target: CF2ThCXCR4 (human) (UniProt P61073); assay: FACS binding; CF2ThCXCR4 cells, % positive
[4] = target: CXCR4 (Jurkat) (human) (UniProt P61073); assay: FACS binding; Jurkat cells, MFI
[5] = target: human CXCR4 (wild type) (human) (UniProt P61073); assay: FACS on 293T cells expressing CXCR4 variants
human CXCR4 (wild type) (human), sequence (P61073 whole entry): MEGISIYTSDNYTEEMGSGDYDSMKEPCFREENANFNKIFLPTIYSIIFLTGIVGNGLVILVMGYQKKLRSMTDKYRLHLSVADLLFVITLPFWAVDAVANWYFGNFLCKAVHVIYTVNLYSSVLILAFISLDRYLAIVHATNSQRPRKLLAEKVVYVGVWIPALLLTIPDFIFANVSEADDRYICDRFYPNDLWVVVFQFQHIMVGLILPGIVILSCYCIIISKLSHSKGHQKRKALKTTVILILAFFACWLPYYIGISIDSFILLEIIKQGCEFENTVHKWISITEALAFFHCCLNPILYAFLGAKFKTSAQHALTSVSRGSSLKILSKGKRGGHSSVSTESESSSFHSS

[6] = target: ΔN31-CXCR4 (human) (UniProt P61073); assay: FACS on 293T cells expressing CXCR4 variants
[7] = target: 2444b CXCR2/CXCR4 chimera (human) (UniProt P25025); assay: FACS on 293T cells expressing CXCR4 variants
2444b CXCR2/CXCR4 chimera (human), sequence (P25025 other isoform, or with tags, fused parts or gaps mutant limits assumed): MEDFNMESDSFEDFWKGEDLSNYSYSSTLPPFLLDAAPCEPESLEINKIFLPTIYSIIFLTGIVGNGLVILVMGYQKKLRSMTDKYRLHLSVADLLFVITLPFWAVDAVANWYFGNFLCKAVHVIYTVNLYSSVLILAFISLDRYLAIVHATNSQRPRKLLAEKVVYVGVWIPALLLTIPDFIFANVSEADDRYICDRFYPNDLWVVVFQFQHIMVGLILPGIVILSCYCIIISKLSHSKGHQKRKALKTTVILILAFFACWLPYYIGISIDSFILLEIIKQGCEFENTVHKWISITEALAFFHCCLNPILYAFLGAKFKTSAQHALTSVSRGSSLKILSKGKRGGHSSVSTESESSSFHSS

[8] = target: 4442 CXCR2/CXCR4 chimera; assay: FACS on 293T cells expressing CXCR4 variants
[9] = target: ΔN25-CXCR4 (human) (UniProt P61073); assay: FACS on 293T cells expressing CXCR4 variants
[10] = target: 2442 CXCR2/CXCR4 chimera; assay: FACS on 293T cells expressing CXCR4 variants

CXCR4 (Jurkat) (human), sequence (P61073 whole entry): as the sequence (P61073 whole entry) above
CF2ThCXCR4 (human), sequence (P61073 whole entry): as above

| Substance | EC50 [1] [µg/mL] | EC50 [2] [µg/mL] | EC50 [3] [µg/mL] | EC50 [4] [µg/mL] | binding (+%) [5] [%] | binding (+%) [6] [%] | binding (+%) [7] [%] | binding (+%) [8] [%] | binding (+%) [9] [%] | binding (+%) [10] [%] |
| --- | --- | --- | --- | --- | --- | --- | --- | --- | --- | --- |
| 12G5 | 0.7 | 0.06 | 0.005 | 16.9 | – | – | – | – | – | – |
| murine monoclonal antibody 12G5 | – | – | – | – | 100 | 55.4 | 70.1 | 103 | 69.2 | 85.8 |
